This note sets out measurements from paper PMC10963267 (2023).

Holding throughout (assay): BLI
In general terms: BLI is a label-free optical method that tracks binding on a fibre tip over time.

The target of assay [1] is IL70101.
Assay [2] addresses IL70099.
In assay [3] the target is IL70096.
The target in assay [4] is IL70110.
Assay [5] has as its target IL70095.
Assay [6] deals with IL70098.
Assay [7] has as its target IL70106.
For assay [8], the target named is IL70104.
Assay [9] deals with IL70107.
Assay [10] has as its target IL70109.
Assay [11] concerns the target IL70094.
The target of assay [12] is IL70092.
Assay [13] concerns the target IL70108.
Assay [14] concerns the target IL70103.
In assay [15] the target is IL70097.
In assay [16] the target is IL70093.

B1: human interleukin-7 (huIL-7), biotinylated (ligand)
chain: DCDIEGKDGKQYESVLMVSIDQLLDSMKEIGSNCLNNEFNFFKRHICDANKEGMFLFRAARKLRQFLKMNSTGDFDLHLLKVSEGTTILLNCTGQVKGRKPAALGEAQPTKSLEENKSLKEQKKLNDLCFLKRLLQEIKTCWNKILMGTKEH
modifications: biotin
As to B1, the Kd (in general, the constant that tells how readily two partners part at equilibrium) in assay [1] is 1.14 nM; in assay [2] it was 1.53 nM; in assay [3], 0.708 nM; in [4], 0.824 nM; in assay [5], 0.429 nM; in assay [6], 0.52 nM. For the same molecule, the Kd in [7] was 2.92 nM; in assay [8], 2.64 nM; in assay [9], 2.94 nM; in assay [10], 1.48 nM; in [11], 0.754 nM; in [12], 0.909 nM. Further, the Kd in [13] came out at 2.55 nM; in assay [14] it was 0.657 nM; in assay [15], 1.79 nM; in assay [16], 0.525 nM.
